Measured values reported in patent US20210038737A1.
Blank lines part the entries; values can stand above or below the substance they belong to.

Assays:
[1] = target: CAL PDZ domain (CALP5-His) (UniProt Q9HD26); assay: FP competition, condition B: probe FAM-…-OH (100 nM) with 500 nM CALP5-His; competitor titrated
[2] = target: CAL PDZ domain (CALP5-His) (UniProt Q9HD26); assay: direct FP, condition C: 50 nM labeled peptide, CALP5-His titrated
[3] = target: CAL PDZ domain (CALP5-His) (UniProt Q9HD26); assay: FP competition
[4] = target: CAL PDZ domain (CALP5-His) (UniProt Q9HD26); assay: FP competition, condition A: probe peptide 26 (50 nM) with 100 nM CALP5-His; competitor titrated
[5] = target: CAL PDZ domain (CALP5-His) (UniProt Q9HD26); assay: direct FP: 50 nM FITC-labeled peptide, PDZ domain titrated
[6] = target: NHERF2-PDZ1 domain (UniProt Q15599); assay: as above
NHERF2-PDZ1 domain, sequence (Q15599 11-90 limits assumed): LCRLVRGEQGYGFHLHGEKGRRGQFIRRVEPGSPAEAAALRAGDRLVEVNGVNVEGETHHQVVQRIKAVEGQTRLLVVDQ

[7] = target: NHERF2-PDZ2 domain (UniProt Q15599); assay: as above
NHERF2-PDZ2 domain, sequence (Q15599 150-230 limits assumed): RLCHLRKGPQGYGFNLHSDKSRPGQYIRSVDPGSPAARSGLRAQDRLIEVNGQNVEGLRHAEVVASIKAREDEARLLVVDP

[8] = target: NHERF1-PDZ1 domain (UniProt O14745); assay: as above
NHERF1-PDZ1 domain, sequence (O14745 14-94 limits assumed): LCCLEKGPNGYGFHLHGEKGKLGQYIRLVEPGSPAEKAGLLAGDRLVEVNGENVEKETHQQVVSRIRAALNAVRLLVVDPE

[9] = target: CAL PDZ domain (CALP5-His) (UniProt Q9HD26); assay: direct FP of FITC-labeled peptides
[10] = target: CAL PDZ domain (CALP5-His) (UniProt Q9HD26); assay: direct FP, ratio of KD values

Substance: peptide 21: Ac-Cys-(D-Arg)-(D-Arg)-Arg-(2-Nal)-Trp-Gln-Pen-Thr-Arg-Tle-OH
IC50 [1]: 270 nM

Substance: peptide 26: FAM-miniPEG-Cys-(D-Arg)-Arg-Arg-(2-Nal)-(Bta)-Pen-Tle-Thr-Arg-Tle-OH
Kd [2]: 49 nM

Substance: peptide 24: Ac-Cys-(D-Arg)-Arg-Arg-(2-Nal)-Trp-Pen-Tle-Thr-Arg-Tle-OH
fold decrease in CAL binding (vs parent, printed as peptide 22) [3]: 2 fold
IC50 [1]: 380 nM

Substance: peptide 20: Ac-Cys-(D-Arg)-Arg-Arg-(2-Nal)-Trp-Gln-Pen-Thr-Arg-Tle-OH
IC50 [1]: 165 nM

Substance: peptide 25: Ac-Cys-(D-Arg)-Arg-Arg-(2-Nal)-(Bta)-Pen-Tle-Thr-Arg-Tle-OH
fold more potent than peptide 24 in CAL binding [3]: 1.5 fold
IC50 [1]: 235 nM

Substance: peptide 23: FAM-miniPEG-Cys-(D-Arg)-Arg-Arg-(2-Nal)-Trp-Pro-Pen-Thr-Arg-Tle-OH
Kd [2]: 168 nM

Substance: peptide 28-FITC: FITC-miniPEG-Cys-(D-Arg)-Arg-Arg-Nal-Bta-Pro-Pen-Thr-Arg-Tle-OH
Kd [5]: 87 nM

More lines, now with the values ahead:

IC50 [4]: 401 nM
Substance: peptide 22: Ac-Cys-Arg-(D-Arg)-Arg-(2-Nal)-Trp-Gln-Pen-Thr-Arg-Tle-OH

Kd [6]: 1370 nM
Kd [7]: 7480 nM
Kd [8]: 780 nM
Kd [5]: 6 nM
fold improvement of CAL PDZ-binding affinity (Pip for Pro, vs peptide 28) [9]: 15 fold
fold selectivity for CAL PDZ over NHERF1/2 PDZ domains [10]: > 130 fold
Substance: peptide 29-FITC: FITC-miniPEG-Cys-(D-Arg)-Arg-Arg-Nal-Bta-Pip-Pen-Thr-Arg-Tle-OH

Kd [5]: 179 nM
Substance: peptide 27-FITC: FITC-miniPEG-Cys-(D-Arg)-Arg-Arg-Nal-Trp-Pro-Pen-Thr-Arg-Tle-OH
